Sequences and labels used below:
B4: CCL5 (ligand, UniProt P13501 24-91, looked up)
chain: SPYSSDTTPCCFAYIARPLPRAHIKEYFYTSGKCSNPAVVFVTRKNRQVCANPEKKWVREYINSLEMS
modifications: also: 125I label, position not given here
notes: also called RANTES
B7: recombinant human CXCL11/I-TAC (ligand, UniProt O14625 22-94, looked up)
chain: FPMFKRGRCLCIGPGVKAVKVADIEKASIMYPSNNCDKIEVIITLKENKGQRCLNPKSKQARLIIKKVERKNF
modifications: biotinylated in the ELISA; 125I label in the radioligand assays

The target of assay [1] is T1, recombinant human CCL5/RANTES (Mucin stalk Chimera) (human, UniProt P13501 24-91, biotinylated in the ELISA).
T1 construct: also called mucin-CCL5; not shown: mucin stalk of the chimera (R&D 978-RN/CF); origin, limits and order not described
T1 sequence (looked up): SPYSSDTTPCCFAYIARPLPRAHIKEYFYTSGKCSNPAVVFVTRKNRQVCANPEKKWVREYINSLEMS
Put plainly: ELISA, periplasmic extract on biotinylated mucin-CCL5 on neutravidin, anti-myc detection. A general note: In an ELISA, binding on a coated surface is turned into a signal by an enzyme label.

The target in the assay “CCL5” is B4. Kind of assay: inhibition of 125I-CCL5 binding to hCCR1 (HEK293T cells), purified Nanobody.
For assay [2], the target named is T2, recombinant human CXCL12/SDF1alpha (human, UniProt P48061-2 22-89, biotinylated in the ELISA; 125I label in the radioligand assays). Kind of assay: cell-based or functional assay.
T2 sequence (P48061 22-89 limits assumed): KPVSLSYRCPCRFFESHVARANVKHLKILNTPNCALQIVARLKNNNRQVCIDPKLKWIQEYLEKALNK
The target in assay [3] is T2, recombinant human CXCL12/SDF1alpha. Kind of assay: inhibition of 125I-CXCL12 (57 pM) binding to CXCR4 on HEK293T cells; specific-binding data.
Assay [4] has the same target. Kind of assay: inhibition of 125I-CXCL12 (57 pM) binding to CXCR4 on HEK293T cells; radioligand preincubated with purified Nanobody; total binding data.
Assay [5] deals with B7. Put plainly: inhibition of 125I-CXCL11 binding to hCXCR3 (HEK293T cells), purified Nanobody.
The target of a further assay is T3, hCCR1 (human, UniProt P32246 1-355).
T3 construct: whole, on cells
T3 sequence (looked up): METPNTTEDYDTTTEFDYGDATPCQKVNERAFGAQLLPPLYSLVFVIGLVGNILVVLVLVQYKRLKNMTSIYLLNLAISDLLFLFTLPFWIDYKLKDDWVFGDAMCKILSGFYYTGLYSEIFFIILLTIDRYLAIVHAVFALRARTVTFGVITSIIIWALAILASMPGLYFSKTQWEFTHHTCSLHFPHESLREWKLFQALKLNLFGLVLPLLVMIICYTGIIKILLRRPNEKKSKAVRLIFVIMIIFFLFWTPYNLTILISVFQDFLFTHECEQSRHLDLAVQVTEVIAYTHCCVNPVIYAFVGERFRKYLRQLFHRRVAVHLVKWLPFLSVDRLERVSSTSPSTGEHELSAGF
Kind of assay: competition of unlabeled CCL5 with 125I-CCL5 on HEK293T cells with hCCR1.

The target in assay [6] is T4, recombinant human CCL2/MCP1 (human, UniProt P13500 24-99, 125I label in the radioligand assays).
T4 construct: Immunogen and selection antigen was the Mucin stalk Chimera (R&D 979-MC/CF)
T4 sequence (P13500 24-99 limits assumed): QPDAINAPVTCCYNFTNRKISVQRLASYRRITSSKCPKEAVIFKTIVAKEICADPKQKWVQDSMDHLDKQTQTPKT
Put plainly: inhibition of 125I-CCL2 binding to hCCR2 (HEK293T cells), 10x diluted extract.

The target of assay [7] is T4, recombinant human CCL2/MCP1. Put plainly: inhibition of 125I-CCL2 binding to hCCR2 (HEK293T cells), purified Nanobody and 10x diluted extract.
A further assay addresses T5, hCXCR3 (human, UniProt P49682 1-368).
T5 construct: whole, on cells
T5 sequence (looked up): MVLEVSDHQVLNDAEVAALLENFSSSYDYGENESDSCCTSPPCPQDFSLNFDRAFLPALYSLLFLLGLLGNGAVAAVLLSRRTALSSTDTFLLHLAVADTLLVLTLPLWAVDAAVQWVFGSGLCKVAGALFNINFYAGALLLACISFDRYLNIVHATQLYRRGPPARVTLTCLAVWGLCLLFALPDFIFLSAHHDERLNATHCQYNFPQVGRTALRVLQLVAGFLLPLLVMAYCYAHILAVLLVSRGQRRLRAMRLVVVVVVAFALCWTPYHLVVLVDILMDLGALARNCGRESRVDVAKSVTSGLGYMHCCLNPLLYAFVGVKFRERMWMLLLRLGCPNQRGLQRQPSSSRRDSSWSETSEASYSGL
Kind of assay: competition of unlabeled CXCL11 with 125I-CXCL11 on HEK293T cells with hCXCR3.

B1: Nanobody 10H3 (VHH)
VHH: EVQLVESGGGLVQAGGSLRLSCAASGRTFSTYVMGWFRQAPGKEREFVAGITSSIGVTRYAGSVQDRFTISKDNAKNTVFLQMNSLKPEDTADYYCAARPDYYISINPVAYPYWGQGTQVTVSS
notes: llama VHH against CCL5; purified; not shown: C-terminal c-myc tag and (His)6 tag coded by the vector
Consider B1, for which the binding result (in [1]; in the assay with CCL5) was “binds” each time.

B2: Nanobody 12A4 (VHH)
VHH: EVQLVESGGGLVQPGGSLRLSCAASGFTLDDYAIGWFRQAPGKEREGVSCINSNDGNTYYADSVKGRFTISRDNAKSTVYLQMNSLKPDDTAVYYCAAEAMGYCSAYGSFEGYWGQGTQVTVSS
notes: llama VHH against CXCL12; purified; also called 12C1; 12E4; not shown: C-terminal c-myc tag and (His)6 tag coded by the vector
What is called pIC50 is −log10 of the IC50, conventionally taken in molar units. Consider B2, for which the “inhibition of CXCL12-induced PLC activation (3H-inositol phosphate accumulation, HEK293T cells with CXCR4 and G-alpha-qi5), pIC50” value in assay [2] came to 7.2. In addition, the figures for the pIC50 in assay [3] and in [4] were 9.1 and 8.7, respectively.

B3: Nanobody 11G9 (VHH)
VHH: EVQLVESGGGLVQPGGSLRLSCAASGGTLDDYVIGWFRQAPGKEREGVSCISSTDGSTYYADSVKGRFTISRDNAKNTVYLQVNSLKPEDTAVYYCAAGMGVLRQWALSKLSYDYWGQGTQVTVSS
notes: llama VHH against CXCL11; not shown: C-terminal c-myc tag and (His)6 tag coded by the vector
As to B3, the binding result in [5] is “binds”.
On to B4, for which the binding result with hCCR1 is “binds”.

B5: Nanobody 16D5 (VHH)
VHH: EVQLVESGGGLVQAGGSLRLSCAASGFTFDDYAIAWFRQAPGKEREVVSCISSSDGSTYYADSVKGRFTISSDNAKNTVFLQMNSLKPEDTAVYYCAAVSNCPRDSDYIPYLHYWWGQGTQVTVSS
notes: llama VHH against CCL2; not shown: C-terminal c-myc tag and (His)6 tag coded by the vector
For the molecule B5, the binding result in assay [6] is recorded as “binds”.

B6: Nanobody 16C1 (VHH)
VHH: EVQLVESGGGLVQAGGSLRLSCAASGRTFSSYVMGWFRQAPGKEREFVAAIRWSGGSTYYADSVKGRFTISRDNAKNTVYLQMNSLKPEDTAVYYCAADLLGDSDYEPSSGFGSWGQGTQVTVSS
notes: as for B5
As to B6, the binding result in assay [7] is reported as “binds”.
Regarding B7, the binding result with hCXCR3 is on record as “binds”.
